# From paper PMC7038936 (Nucleic Acids Research, 2020)
# B1: XPA DNA-binding domain (XPA 98-239), wild type (domain or fragment, human, UniProt P23025 98-239, looked up)
# chain: MEFDYVICEECGKEFMDSYLMNHFDLPTCDNCRDADDKHKLITKTEAKQEYLLKDCDLEKREPPLKFIVKKNPHHSQWGDMKLYLKLQIVKRSLEVWGSQEALEEAKEVRQENREKMKQKKFDKKVKELRRAVRSSVWKRET
# B2: FAM three-way junction (EMSA) (structured_DNA)
# DNA 1: GTTCGTCAGGATTCCAATTCGTGCAGGCAT
# DNA 2: ATGCCTGCACGAATTAAGCCATTCGTAATCATGGT
# DNA 3: ACCATGATTACGAATGGCTTGGAATCCTGACGAAC
# What was measured:
# [1] = molecular target: RPA70AB (RPA70 181-422), tandem ssDNA-binding domains A and B of RPA70 (human, UniProt P27694 181-422); test: SEC-MALS
# RPA70AB (RPA70 181-422), tandem ssDNA-binding domains A and B of RPA70, sequence (P27694 181-422): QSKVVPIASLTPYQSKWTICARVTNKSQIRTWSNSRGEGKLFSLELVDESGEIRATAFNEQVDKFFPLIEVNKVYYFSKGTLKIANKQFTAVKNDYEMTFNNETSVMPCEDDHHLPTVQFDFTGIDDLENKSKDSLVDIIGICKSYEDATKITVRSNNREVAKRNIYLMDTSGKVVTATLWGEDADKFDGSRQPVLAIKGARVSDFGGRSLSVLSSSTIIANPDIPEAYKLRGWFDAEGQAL
# XPA full length M2 = XPA full length M2 (human, UniProt P23025 1-273, E106K;F112A); test: EMSA
# XPA full length M2, sequence (P23025 whole entry E106K/F112A): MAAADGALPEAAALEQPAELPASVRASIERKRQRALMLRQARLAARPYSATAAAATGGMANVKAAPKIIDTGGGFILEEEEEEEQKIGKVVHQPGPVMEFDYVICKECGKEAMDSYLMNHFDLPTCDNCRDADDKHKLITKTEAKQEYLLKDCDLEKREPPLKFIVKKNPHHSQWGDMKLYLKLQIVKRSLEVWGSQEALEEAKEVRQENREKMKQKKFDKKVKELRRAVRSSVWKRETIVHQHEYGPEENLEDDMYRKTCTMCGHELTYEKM
# RPA70AB = RPA70AB (UniProt P27694 181-422); test: NMR
# RPA70AB, sequence (P27694 181-422): as the sequence (P27694 181-422) above
# [2] = molecular target: XPA globular core (XPA98-219);RPA70AB (human;human?, UniProt P23025;P27694 98-219;181-422, |); test: NMR
# XPA globular core (XPA98-219);RPA70AB, sequence (P27694 181-422, one chain of several): as the sequence (P27694 181-422) above
binder,measurement,setting,value
B1,binding result,[1],binds
B2,binding result,XPA full length M2,binds
CCCCCCCC (ssDNA) [dC8],binding result,RPA70AB,binds
same,binding result,[2],binds
